Experiment [1] deals with FLAG-G3BP1 (human, wild type) (human) (UniProt Q13283).
Experiment [2] addresses F380L/F382L double mutant G3BP1 (human) (UniProt Q13283).

For A4V mutant SOD1-3xHA (natural protein), the percentage of cells with SOD1 inclusions in which G3BP1 co-localizes (EGFP-tagged SOD1 and mCherry-tagged G3BP1 in G3BP1-null 293T cells) was found to be 86.6% in experiment [1] and 36.1% in experiment [2].

In the case of “A4V/W32S double mutant SOD1 (natural protein)”, the percentage of cells with SOD1 inclusions in which G3BP1 co-localizes (EGFP-tagged SOD1 and mCherry-tagged G3BP1 in G3BP1-null 293T cells) was 49.1% in experiment [1] and 14.7% in experiment [2].

These data come from PMC5023729.
